{
  "source": "paper PMC6862768",
  "about": "(Nature, 2019)",
  "proteins": {"B1": {"name": "full-length chicken STING, cGAMP-bound (natural protein, UniProt E1C7U0 1-379, looked up)", "chain": "MPQDPSTRSSPARLLIPEPRAGRARHAACVLLAVCFVVLFLSGEPLAPIIRSVCTQLAALQLGVLLKGCCCLAEEIFHLHSRHHGSLWQVLCSCFPPRWYLALLLVGGSAYLDPPEDNGHSPRLALTLSCLCQLLVLALGLQKLSAVEVSELTESSKKNVAHGLAWSYYIGYLKVVLPRLKECMEELSRTNPMLRAHRDTWKLHILVPLGCDIWDDLEKADSNIQYLADLPETILTRAGIKRRVYKHSLYVIRDKDNKLRPCVLEFASPLQTLCAMSQDDCAAFSREQRLEQARLFYRSLRDILGSSKECAGLYRLIAYEEPAEPESHFLSGLILWHLQQQQREEYMVQEELPLGTSSVELSLQVSSSDLPQPLRSDCP"}},
  "molecular_target": "the molecule itself",
  "test": "cryo-EM structure",
  "data": [
    {"protein": "B1", "values": [
      {"measurement": "stoichiometry N", "value": 2}
    ]}
  ]
}
